Results on three molecules are retold here after US10005846 (LIFEARC, dated 2018).

Positions count from the first letter of the chain named.

Assay [1] deals with T1, human transglutaminase type 2 (TG2) (human, UniProt P21980 1-687).
T1 sequence: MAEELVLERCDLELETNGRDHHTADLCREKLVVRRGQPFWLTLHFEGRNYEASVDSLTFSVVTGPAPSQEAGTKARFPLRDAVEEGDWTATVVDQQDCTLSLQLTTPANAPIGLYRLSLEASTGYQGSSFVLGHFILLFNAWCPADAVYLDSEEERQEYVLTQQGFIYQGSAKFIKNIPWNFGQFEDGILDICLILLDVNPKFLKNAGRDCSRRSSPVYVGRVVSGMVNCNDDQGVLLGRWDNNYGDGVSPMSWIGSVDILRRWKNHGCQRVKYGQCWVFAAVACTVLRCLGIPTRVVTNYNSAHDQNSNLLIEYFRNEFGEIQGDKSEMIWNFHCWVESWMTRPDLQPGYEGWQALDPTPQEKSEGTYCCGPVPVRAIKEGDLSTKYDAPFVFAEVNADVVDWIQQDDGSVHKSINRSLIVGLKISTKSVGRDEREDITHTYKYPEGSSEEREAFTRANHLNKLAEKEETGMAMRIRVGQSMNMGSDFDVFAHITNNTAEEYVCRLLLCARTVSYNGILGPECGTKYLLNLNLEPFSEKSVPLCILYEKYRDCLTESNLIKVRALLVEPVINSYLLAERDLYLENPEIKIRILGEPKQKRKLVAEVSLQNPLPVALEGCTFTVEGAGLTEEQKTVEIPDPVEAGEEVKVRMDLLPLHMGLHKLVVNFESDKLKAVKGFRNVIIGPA
The assay is described as follows: cell-based or functional assay.

The target in assay [2] is T1, human transglutaminase type 2 (TG2). In words: ELISA on immobilised human TG2; r2 0.9968; EC50 95% confidence range 0.2890 to 0.4002 [panel A]. The protocol: (§1) Antibody binding to human and cynomolgus monkey TG2 was determined in an ELISA assay. Clear polystyrene "Maxisorp" 96-well plates (Nunc) were coated with 50 ng purified human or cynomogulus monkey TG2 in 50 µl 0.05 M carbonate-bicarbonate buffer pH 9.6 at 4° C. overnight. Control wells were coated with 50 µl 100 µg/ml bovine serum albumin (BSA). Plates were washed 3× with 300 µl phosphate-buffered saline pH7.4 (PBS) containing 0.1% Tween 20 (PBST) and blocked with 300 µl 3% w/v Marvel skimmed milk in PBS for 1 hour at room temperature. After 3× wash with PBST, 50 µl protein-A purified chimeric or humanised anti-TG2 antibodies or human IgG1 kappa […] control antibody or CUB7402 (Abcam) were serially diluted 4-fold from a top concentration of 50 nM in PBS, and added to the plate in duplicate. […] After 3× washes with PBST, the plates were developed with 50 µl TMB substrate (Sigma) for 5 min at room temperature before stopping the reaction with 25 µl 0.5M H2SO4 and reading absorbance at 450 nm in a microtiter plate reader (BioTek EL808). Dose response curves were analysed and EC50 values and other statistical parameters determined using a 4-parameter logistical fit of the data (GraphPad Prism).
A general note: An ELISA detects its analyte on a solid surface through an enzyme-linked reagent.

Assay [3] shares this target. In words: cell-based or functional assay. This is another data set of the same source.
Assay [4] shares this target. The assay is described as follows: cell-based or functional assay. This is another data set of the same source.
For assay [5] the target is unchanged. The assay is described as follows: ELISA on immobilised human TG2; r2 0.9682; EC50 95% confidence range 0.03611 to 0.06410 [continued), panel B]. How it is done: as §1
Another assay concerns the target T2, cynomolgus monkey TG2 (cynomolgus monkey, UniProt A0A2K5VXI8 1-687).
T2 construct: Bought recombinant protein; also called cynomogulus monkey TG2; cyano TG2
T2 sequence: T1 sequence with E4D, Q157R, N177S, H413S, I421T, Y528H, V542I
In words: ELISA on immobilised cynomolgus monkey TG2; r2 0.9383; EC50 95% confidence range 0.03303 to 0.08079 [panel B]. How it is done:
as §1

B1: cDH001 chimeric antibody (murine DH2 variable regions) (antibody, human IgG1, V domains shown)
VH: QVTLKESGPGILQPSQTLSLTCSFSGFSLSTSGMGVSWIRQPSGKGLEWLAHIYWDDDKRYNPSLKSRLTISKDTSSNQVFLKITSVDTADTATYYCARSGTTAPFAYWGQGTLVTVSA
VL: QIVLTQSPAIMSASPGEKVTMTCSASSSVSYMYWYQQKPGSSPRLLIYDTSNLASGVPVRFSGSGSGTSYSLTISRMEAEDAATFYCQQWSSSPLTFGAGTKLELK
In general, EC50 refers to the concentration giving half of the maximal effect. B1: in assay [1], the “IC50 of enzymatic inhibition, dansylated lysine incorporation into N,N-dimethylated casein [continued), panel E]” value was 829 nM. The molecule also came in with an EC50 in assay [2] of 0.34 nM.

B2: cDD9001 chimeric antibody (murine DD9 variable regions) (antibody, human IgG1, V domains shown)
VH: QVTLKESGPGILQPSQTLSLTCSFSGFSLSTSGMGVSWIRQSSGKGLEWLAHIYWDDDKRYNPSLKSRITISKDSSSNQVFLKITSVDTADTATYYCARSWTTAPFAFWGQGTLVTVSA
VL: B1 VL with S30D, E78G, F85Y, S91N
On to B2, for which the “IC50 of enzymatic inhibition, dansylated lysine incorporation into N,N-dimethylated casein [continued), panel D]” value in assay [3] was 172 nM.

B3: cBB001 chimeric antibody (murine BB7 variable regions) (antibody, human IgG1, V domains shown)
VH: AVQLVESGGGLVKPGGSLKLSCAASGIIFSSSAMSWVRQTPEKRLEWVATISSGGRSTYYPDSVKGRFTVSRDSAKNTLYLQMDSLRSEDTAIYYCAKLISPYWGQGTTLTVSS
VL: AIKMTQSPSSMYASLGERVIITCKASQDINSYLTWFQQKPGKSPKTLIYLTNRLMDGVPSRFSGSGSGQEFLLTISGLEHEDMGIYYCLQYVDFPYTFGGGTKLEIK
notes: also called chimeric BB7
Regarding B3, the “IC50 of enzymatic inhibition, dansylated lysine incorporation into N,N-dimethylated casein [panel B]” value in assay [4] was determined as 0.925 nM. Moreover, the EC50 in assay [5] stood at 0.0481 nM; with cynomolgus monkey TG2, 0.0517 nM.
